In this test the target is T1, Recombinant human CD28 (R&D Systems) (human, UniProt P10747 19-152).
T1 construct: Coated on microtiter plates at 1 ug/mL; also called recombinant CD28
In words: ELISA on immobilized recombinant human CD28, purified Mono28Fc.

Where “and” joins values, the source holds several entries; their conditions need not be identical. Equal values may be shown once.

B1: Mono28Fc, recombinant monovalent antibody derived from the anti-CD28 antibody CD28.3 (heterodimer VH-CH2CH3 + VL-CH2CH3, human IgG1 CH2-CH3) (antibody, V domains shown)
VH: VKLQQSGAELVKPGASVRLSCKASGYTFTEYIIHWIKLRSGQGLEWIGWFYPGSNDIQYNAKFKGKATLTADKSSSTVYMELTGLTSEDSAVYFCARRDDFSGYDALPYWGQGTMVTVSS
VL: DIQMTQSPASLSVSVGETVTITCRTNENIYSNLAWYQQKQGKSPQLLIYAATHLVEGVPSRFSGSGSGTQYSLKITSLQSEDFGNYYCQHFWGTPCTFGGGTKLEIKR
notes: Expressed in COS cells from pSecTag2B with the mouse Ig kappa leader (cleaved on secretion); also called co-transfection with pSec-VH-Fc(CH2-CH3) and pSec-VL-Fc(CH2-CH3)
B1: the EC50 is 0.1 µg/mL and 1.16 nM.

By EC50 is commonly meant the concentration giving half of the maximal effect.

The values are drawn from US20170166643A1 (OSE IMMUNOTHERAPEUTICS, published 2017).
